Measured values as given in publication PMC10707181, “Neuronal Scaffold Protein ARMS Interacts with Synaptotagmin-4 C2AB through the Ankyrin Repeat Domain with an Unexpected Mode” (International Journal of Molecular Sciences, 2023).

B1: Syt4 132–425 [human] / ARMS ankyrin repeats 1–11 (R1-11, residues 1–365) [rat] (parent)
chain 1: MSVLISQSVINYVEEENIPALKALLEKCKDVDERNECGQTPLMLAAEQGNVEIVKELLKNGANCNLEDLDNWTALISASKEGHIHIVEELLKSGASLEHRDMGGWTALMWACYKGRTDVVELLLSHGANPSVTGLYSVYPIIWAAGRGHADIVHLLLQNGAKVNCSDKYGTTPLVWAARKGHLECVKHLLAMGADVDQEGANSMTALIVAVKGGYTQSVKEILKRNPNVNLTDKDGNTALMIASKEGHIEIVQDLLDAGTYVNIPDRSGDTVLIGAVRGGHVEIVRALLQKYADIDIRGQDNKTALYWAVEKGNATMVRDILQCNPDTEICTKDGETPLIKATKMRNIEVVELLLDKGAKVSAVD
chain 2: ESVSPESLKSSTSLTSEEKQEKLGTLFFSLEYNFERKAFVVNIKEARGLPAMDEQSMTSDPYIKMTILPEKKHKVKTRVLRKTLDPAFDETFTFYGIPYTQIQELALHFTILSFDRFSRDDIIGEVLIPLSGIELSEGKMLMNREIIKRNVRKSSGRGELLISLCYQSTTNTLTVVVLKARHLPKSDVSGLSDPYVKVNLYHAKKRISKKKTHVKKCTPNAVFNELFVFDIPCEGLEDISVEFLVLDSERGSRNEVIGQLVLGAAAEGTGGEHWKEICDYPRRQIAKWHVLCDG

Variants of: B1
Assay: ITC
Details: with ARMS ankyrin repeats 1–11 (R1-11, residues 1–365) [rat]

ratio to parent | Variant
0.8 | chain 2 ESVSPESLKSSTSLTSEEKQEKLGTLFFSLEYNFERKAFVVNIKEARGLPAMDEQSMTSDPYIKMTILPEKKHKVKTRVLRKTLDPAFDETFTFYGIPYTQIQELALHFTILSFDRFSRDDIIGEVLIPLSGIELSEGKMLMNREIIKRNVRKSSGAGELLISLCYQSTTNTLTVVVLKARHLPKSDVSGLSDPYVKVNLYHAKKRISKKKTHVKKCTPNAVFNELFVFDIPCEGLEDISVEFLVLDSERGSRNEVIGQLVLGAAAEGTGGEHWKEICDYPRRQIAKWHVLCDG [chain 2 R157A]
0.3 | chain 2 ESVSPESLKSSTSLTSEEKQEKLGTLFFSLEYNFERKAFVVNIKEARGLPAMDEQSMTSDPYIKMTILPEKKHKVKTRVLRKTLDPAFDETFTFYGIPYTQIQELALHFTILSFDRFSRDDIIGEVLIPLSGIELSEGKMLMNREIIKRNVAKSSGRGELLISLCYQSTTNTLTVVVLKARHLPKSDVSGLSDPYVKVNLYHAKKRISKKKTHVKKCTPNAVFNELFVFDIPCEGLEDISVEFLVLDSERGSRNEVIGQLVLGAAAEGTGGEHWKEICDYPRRQIAKWHVLCDG [chain 2 R152A]
0.3 | chain 2 ESVSPESLKSSTSLTSEEKQEKLGTLFFSLEYNFERKAFVVNIKEARGLPAMDEQSMTSDPYIKMTILPEKKHKVKTRVLRKTLDPAFDETFTFYGIPYTQIQELALHFTILSFDRFSRDDIIGEVLIPLSGIELSEGKMLMNREIIKRNVAASSGRGELLISLCYQSTTNTLTVVVLKARHLPKSDVSGLSDPYVKVNLYHAKKRISKKKTHVKKCTPNAVFNELFVFDIPCEGLEDISVEFLVLDSERGSRNEVIGQLVLGAAAEGTGGEHWKEICDYPRRQIAKWHVLCDG [chain 2 R152A K153A]

Further lines, the variant ahead of its results:

Variant | ratio to parent
chain 2 ESVSPESLKSSTSLTSEEKQEKLGTLFFSLEYNFERKAFVVNIKEARGLPAMDEQSMTSDPYIKMTILPEKKHKVKTRVLRKTLDPAFDETFTFYGIPYTQIQELALHFTILSFDRFSRDDIIGEVLIPLSGIELSEGKMLMNREIIKRNVRASSGRGELLISLCYQSTTNTLTVVVLKARHLPKSDVSGLSDPYVKVNLYHAKKRISKKKTHVKKCTPNAVFNELFVFDIPCEGLEDISVEFLVLDSERGSRNEVIGQLVLGAAAEGTGGEHWKEICDYPRRQIAKWHVLCDG [chain 2 K153A] | 0.3
chain 2 ESVSPESLKSSTSLTSEEKQEKLGTLFFSLEYNFERKAFVVNIKEARGLPAMDEASMTSDPYIKMTILPEKKHKVKTRVLRKTLDPAFDETFTFYGIPYTQIQELALHFTILSFDRFSRDDIIGEVLIPLSGIELSEGKMLMNREIIKRNVRKSSGRGELLISLCYQSTTNTLTVVVLKARHLPKSDVSGLSDPYVKVNLYHAKKRISKKKTHVKKCTPNAVFNELFVFDIPCEGLEDISVEFLVLDSERGSRNEVIGQLVLGAAAEGTGGEHWKEICDYPRRQIAKWHVLCDG [chain 2 Q55A] | 0.3
chain 2 ESVSPESLKSSTSLTSEEKQEKLGTLFFSLEYNFERKAFVVNIKEARGLPAMDEQSMTSDPYIKMTILPEKKHKVKTRVLRKTLDPAFDETFTFYGIPYTQIQELALHFTILSFDRFSRDDIIGEVLIPLSGIELSEGKMLMNREIIAANVAKSSGRGELLISLCYQSTTNTLTVVVLKARHLPKSDVSGLSDPYVKVNLYHAKKRISKKKTHVKKCTPNAVFNELFVFDIPCEGLEDISVEFLVLDSERGSRNEVIGQLVLGAAAEGTGGEHWKEICDYPRRQIAKWHVLCDG [chain 2 K148A R149A R152A] | 1.6
chain 2 ESVSPESLKSSTSLTSEEKQEKLGTLFFSLEYNFERKAFVVNIKEARGLPAMDEQSMTSDPYIKMTILPEKKHKVKTRVLRKTLDPAFDETFTFYGIPYTQIQELALHFTILSFDRFSRDDIIGEVLIPLSGIELSEGKMLMNREIIAANVRKSSGRGELLISLCYQSTTNTLTVVVLKARHLPKSDVSGLSDPYVKVNLYHAKKRISKKKTHVKKCTPNAVFNELFVFDIPCEGLEDISVEFLVLDSERGSRNEVIGQLVLGAAAEGTGGEHWKEICDYPRRQIAKWHVLCDG [chain 2 K148A R149A] | 0.8

Same assay, conditions: with Syt4 132–425 [human]

ratio to parent | Variant
0.9 | chain 1 MSVLISQSVINYVEEENIPALKALLEKCKDVDERNECGQTPLMLAAEQGNVEIVKELLKNGANCNLEDLDNWTALISASKEGHIHIVEELLKSGASLEHRDMGGWTALMWACYKGRTDVVELLLSHGANPSVTGLYSVYPIIWAAGRGHADIVHLLLQNGAKVNCSDKYGTTPLVWAARAGHLECVKHLLAMGADVDQEGANSMTALIVAVKGGYTQSVKEILKRNPNVNLTDKDGNTALMIASKEGHIEIVQDLLDAGTYVNIPDRSGDTVLIGAVRGGHVEIVRALLQKYADIDIRGQDNKTALYWAVEKGNATMVRDILQCNPDTEICTKDGETPLIKATKMRNIEVVELLLDKGAKVSAVD [chain 1 K180A]
